According to article PMC6684798, “Structural basis for the target specificity of actin histidine methyltransferase SETD3” (Nature Communications, 2019):

Columns and labels:
SETD3 N255A [1] = biological target: T1, SETD3 N255A (Homo sapiens, UniProt Q86TU7, N256A); assay: Steady-state kinetics of SETD3 N255A on K73(66–88) (Fig. 3c; pH 10.5, 37 °C, [N255A] = 90 nM, 40 µM SAM); type: biochemical; details: relative to WT SETD3, Fig. 3c
T1 construct: GST (cleaved yes); made in house; host or cells: Escherichia coli BL21(DE3) CodonPlus
T1 sequence (Q86TU7 1-594 N256A): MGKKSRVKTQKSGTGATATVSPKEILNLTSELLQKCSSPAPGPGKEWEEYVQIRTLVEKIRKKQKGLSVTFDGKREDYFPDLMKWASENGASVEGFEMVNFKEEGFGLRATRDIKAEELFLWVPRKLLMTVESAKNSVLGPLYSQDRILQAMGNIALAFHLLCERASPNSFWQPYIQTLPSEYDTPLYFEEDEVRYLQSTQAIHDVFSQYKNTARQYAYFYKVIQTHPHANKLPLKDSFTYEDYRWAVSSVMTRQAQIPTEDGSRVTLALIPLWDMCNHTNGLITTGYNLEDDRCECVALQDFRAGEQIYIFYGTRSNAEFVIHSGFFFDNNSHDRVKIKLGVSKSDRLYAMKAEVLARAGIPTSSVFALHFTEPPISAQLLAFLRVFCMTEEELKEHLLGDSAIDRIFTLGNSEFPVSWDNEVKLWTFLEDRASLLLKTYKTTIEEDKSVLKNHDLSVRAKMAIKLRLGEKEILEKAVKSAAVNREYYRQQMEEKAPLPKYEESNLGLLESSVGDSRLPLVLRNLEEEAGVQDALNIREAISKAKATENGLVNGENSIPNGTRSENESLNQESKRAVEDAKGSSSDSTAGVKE
Method: Fig. 3 Kinetics of SETD3 on H73 and K73 peptides. a Comparison of activities of three variants (WT, N255A, and N255V) on H73(66–80) peptide. The assays were performed at room temperature (~22 °C) and pH 8.0 using [WT] = 0.18 μM, [N255A] = 0.18 μM, and [N255V] = 0.72 μM. b Comparison of SETD3 WT activities on two K73 peptides (residues 66–80 and 66–88). The assays were performed at 37 °C and pH 10.5 using [WT] = 3 and 15 μM, respectively, for the long and short peptides. c Comparison of activities of three variants (N255A, N255V, and WT) on K73(66–88) peptide. The assays were performed at 37 °C and pH 10.5 using [N255A] = 90 nM, [N255V] = 0.72 μM and [WT] = 4 μM. Data represent the mean ± SD of N number of independent determinations (N = 3 for the WT and N = 2 for the mutants) performed in duplicate. […]
(§1) Recombinant human SETD3 (pXC2003) was expressed as a GST-fusion[22] in Escherichia coli BL21(DE3) CodonPlus^TM cells (Stratagene). […]
A reaction mixture contained 20 mM Tris/HCl (pH 8.0) or 20 mM glycine/NaOH (pH 10.5), 50 mM NaCl, 0.1 mg/ml BSA, 1 mM DTT, 0.18–15 µM SETD3 (as indicated in Fig. 3), 40 µM SAM and varying concentration of peptides. […] The dependence of the velocity of product formation per enzyme on substrate concentration was analyzed according to the Michaelis–Menten equation.

SETD3 N255A [2] = biological target: T1, SETD3 N255A; assay: MALDI-TOF analysis of K73(66–88) methylation by N255A (Fig. 3d); type: biochemical; details: pH 10.5, 37 °C, 3 μM N255A, 10 µM peptide, 40 µM SAM
Method: Fig. 3 Kinetics of SETD3 on H73 and K73 peptides. a Comparison of activities of three variants (WT, N255A, and N255V) on H73(66–80) peptide. The assays were performed at room temperature (~22 °C) and pH 8.0 using [WT] = 0.18 μM, [N255A] = 0.18 μM, and [N255V] = 0.72 μM. b Comparison of SETD3 WT activities on two K73 peptides (residues 66–80 and 66–88). The assays were performed at 37 °C and pH 10.5 using [WT] = 3 and 15 μM, respectively, for the long and short peptides. c Comparison of activities of three variants (N255A, N255V, and WT) on K73(66–88) peptide. The assays were performed at 37 °C and pH 10.5 using [N255A] = 90 nM, [N255V] = 0.72 μM and [WT] = 4 μM. Data represent the mean ± SD of N number of independent determinations (N = 3 for the WT and N = 2 for the mutants) performed in duplicate. Source data are provided as a Source Data file. d, e Mass spectrometry analysis of K73(66–88) methylation kinetic showing representative spectra at various time points for N255A variant (panel d) and SETD3 WT enzyme (panel e). The assays were performed at 37 °C and pH 10.5 using 3 μM for both N255A and WT. f In vitro methylation reactions with SETD3, indicated full-length actin proteins, and radiolabeled methyl donor (^3H-SAM). Right, Reactions were resolved by SDS–PAGE and activity was visualized by autoradiography. […] The first column head is 'SETD3', and the substrate peptide is printed only on the plot axis. / Panel b: the first column head is 'SETD3 (WT)', and the rows are K73 peptide substrates.
as §1
Actin K73 peptide (residues 66–88) was used as a substrate for SETD3 (Fig. 3d, e). […] We note that samples diluted into a 0.1% (v/v) TFA solution in water could not be detected by MALDI-TOF, thus the acetonitrile additive is necessary.

K73(66–88): K73-containing actin H73K peptide, residues 66–88 (TLKYPIEKGIVTNWDDMEKIWHH; UniProt P60709 66-88, looked up, variant H73K)
activity of N255A on K73 peptide (SETD3 N255A [1]): significantly enhanced activity | K73 methylation product (SETD3 N255A [2]; 10 min): monomethyl lysine | K73 methylation product (SETD3 N255A [2]; 30 min): dimethyl | K73 methylation product (SETD3 N255A [2]; 1 h): complete conversion of unmodified substrate to trimethyl lysine
